In patent US7521540B2, “CYR61 compositions and methods” (Munin Corporation, priority 1996, dated 2009):

What was measured:
HUVE cells = assay: Gel matrix invasion and tube formation; assay type: cell-based, human; settings: collagen or fibrin gels
Experimental: The end product of in vitro angiogenesis is a well-defined network of capillary-like tubes. When cultured on gel matrices, e.g., collagen, fibrin, or Matrigel gels, endothelial cells must first invade the matrix before forming mature vessels.
In some wells, Cyr61 was mixed into the gel matrix before gelation (final concentration 10 μg/ml), while in other wells, Cyr61 was not in the gel matrix but was added as part of the nutrient medium (similar range of concentrations as in the matrix) after the cells reached confluency. HUVE cells were seeded onto the gel matrix surface at 5×10^4 cells per well in Ham's F12K medium [GIBCO-BRL, Inc.] containing 10% fetal bovine serum, 100 μg/ml heparin, and 30 μg/ml endothelial cell growth factor. When the cells reached confluency, the medium was removed, the cells were rinsed with PBS, and fresh medium without endothelial cell growth factor was supplied. Some cultures received purified recombinant Cyr61, while others received Cyr61 and polyclonal anti-Cyr61 antibodies. […]
Invasion of the gel matrix was quantified about 4-7 days after treatment of the confluent cultures. […] Invasion was quantified by measuring the total length of all cell cords that penetrated beneath the surface monolayer. Results were expressed as the mean length in microns per field for at least 3 randomly selected fields from each of at least 3 separate experiments. […]

Limb mesenchymal cells [1] = assay: Limb bud mesenchymal cell attachment; assay type: cell-based, mouse; settings: within 1 hour of plating
Experimental: Cyr61, fibronectin (Gibco), or tenascin (Gibco) were diluted in 0.1% protease-free bovine serum albumin (BSA) in PBS with 0.5 mM PMSF, to a final concentrations of 10 or 50 μg/ml. A 10 μl drop/well was placed in a non-tissue culture treated 24-well plate (Corning), and incubated at room temperature for 2 hours. The wells were blocked with 1% BSA in PBS for 1 hour at room temperature, and rinsed with serum-free MEM (Modified Eagle's Medium). Limb mesenchymal cells, suspended at 5×10^5 cell/ml in serum-free MEM, were added at a volume of 400 μl/well, and incubated at 37° C., 5% CO2 for 1 or 3 hours. At each time point, the cell suspension was removed, the wells were rinsed with MEM and the remaining adherent cells were photographed.

Limb mesenchymal cells [2] = assay: Limb mesenchymal cell proliferation in micromass culture; assay type: cell-based, mouse
Experimental: Ahrens et al., Dev. Biol. 60:69-82 (1977), has reported that these cells, in micromass culture, undergo chondrogenesis in a manner similar to the in vivo process. Mesenchyme cells were obtained from mouse embryonic limb buds by trypsin digestion (1 mg/ml, 1:250 dilution of porcine pancreatic trypsin, Sigma Chemical Co.). Cells were explanted in plastic tissue culture wells and allowed to attach for 2 hours at 37° C., 5% CO2. Cells were then incubated for 24 hours at 37° C., 5% CO2 in MEM with 10% FBS, penicillin (50 U/ml), and streptomycin (50 μg/ml). At this point, the composition of the medium was changed by substituting 4% NuSerum (Collaborative Biomedical Products, Inc.) for 10% FBS. Individual cultures then received Cyr61, fibronectin, heparin (each at approximately 1 μg/ml) or buffer as a negative control. […] Harlow et al.
Cell proliferation during the 4 day culture period was determined by counting cell number and by incorporation of [^3H]-thymidine. To determine cell number, cells were harvested by trypsin/EDTA (Sigma) and counted with a Coulter counter. In parallel cultures, [^3H]-thymidine (1 μCi/ml; ICN) was added to the media for 18 hours and incorporation in the TCA-insoluble layer was determined by liquid scintillation counting.

[3] = tested on: Human Microvascular Endothelial Cells; assay: In vitro migration assay for angiogenesis inhibitors; assay type: cell-based; settings: bFGF 10 ng/ml; Cyr61; IGF-II
Experimental: As in the preceding Example, human microvascular endothelial cells (Clonetics) were used. In one series of assays, several carbohydrates and carbohydrate derivatives were analyzed. These compounds included 10 mM mannose, 10 mM mannose-6-phosphate, and 10 mM galactose. […] Cyr61 plus galactose induced the migration of approximately 74 cells per set of three high-powered fields. […] The angiogenic activity of basic FGF (10 ng/ml) was also tested, as described above, with and without mannose-6-phosphate. In the presence of 10 mM mannose-6-phosphate, bFGF induced 51 cells per set of three high-powered fields to migrate; in its absence, bFGF induced the migration of approximately 52 cells. […] The effect of mannose-6-phosphate on IGF II activity was anticipated because mannose-6-phosphate is known to compete with IGF II for their common receptor (the IGF II receptor). […] Moreover, because there is an essentially perfect correlation between the in vitro migration assay and the in vivo angiogenesis assay, described below, mannose-6-phosphate has been identified as an inhibitor of angiogenesis based on the results of the assay disclosed herein. Accordingly, the invention contemplates a method of inhibiting angiogenesis comprising the step of administering an inhibitor the angiogenic activity of Cyr61 such as mannose-6-phosphate. […]

[4] = tested on: Bovine aortic smooth muscle cells (BASM cells); assay: Smooth muscle cell adhesion assay; assay type: cell-based
Experimental: Cell adhesion assays were also performed on smooth muscle cells. Bovine aortic smooth muscle cells (BASM cells) were subjected to the cell adhesion assay described above in the context of assaying fibroblasts. […] To identify particular integrin, receptors mediating the Cyr61 induction of BASM cell adhesion, antibody studies were conducted using anti-integrin antibodies recognizing specific integrins. […] Thus, integrin α6β1 mediates Cyr61-induced adhesion of smooth muscle cells. It is expected that Cyr61 polypeptides that include the heparan binding domain IV will induce adhesion of any mammalian smooth muscle cell.

B1: Cyr61: Cysteine-rich ECM signaling protein; murine sequence SEQ ID NO:2, recombinant from Baculovirus-infected Sf9 cells (protein, listed as Mus musculus)
chain: MSSSTFRTLAVAVTLLHLTRLALSTCPAACHCPLEAPKCAPGVGLVRDGCGCCKVCAKQLNEDCSKTQPCDHTKGLECNFGASSTALKGICRAQSEGRPCEYNSRIYQNGESFQPNCKHQCTCIDGAVGCIPLCPQELSLPNLGCPNPRLVKVSGQCCEEWVCDEDSIKDSLDDQDDLLGLDASEVELTRNNELIAIGKGSSLKRLPVFGTEPRVLFNPLHAHGQKCIVQTTSWSQCSKSCGTGISTRVTNDNPECRLVKETRICEVRPCGQPVYSSLKKGKKCSKTKKSPEPVRFTYAGCSSVKKYRPKYCGSCVDGRCCTPLQTRTVKMRFRCEDGEMFSKNVMMIQSCKCNYNCPHPNEASFRLYSLFNDIHKFRD
matrix invasion and tube formation (HUVE cells): induce matrix invasion and tube formation | attachment morphology of limb mesenchymal cells (Limb mesenchymal cells [1]): adhered as clusters of rounded cells | cell number and DNA synthesis (Limb mesenchymal cells [2]): both increased cell number and enhanced DNA synthesis after 2 and 3 days in culture | migrating cells, chemoattractant without mannose-6-phosphate [3]: approximately 48 cells | adhesion of BASM cells [4]: induced adhesion of BASM cells
